Test results: US20140234868A1, “USE FOR GLYCOLIPOPROTEIN GINTONIN, ISOLATED AND IDENTIFIED FROM GINSENG, AS A NATURAL MEDICAL-PLANT DERIVED LIGAND” (KONKUK UNIVERSITY INDUSTRIAL COOPERATION CORP., priority 2011, published 2014)

System: rat adrenal gland
Assay: Catecholamine secretion from perfused rat adrenal gland
Procedure: Male rats (Sprague-Dawley, each weighing 200 to 300 g) was anesthetized by an to intraperitoneal injection of thiopental sodium (50 mg/kgm), and the adrenal gland was excised from the rats according to the method of Wakade and Woo et al. (Wakade, J Physiol. 313, 463-480, 1981; Woo et al., Korean J Physiol Pharmacol., 12, 155-164, 2008).
Briefly, a cannula was inserted so as to perfuse the adrenal gland, as illustrated in FIG. 18. During the cannula insertion, heparin (400 IU/ml) was infused into the vena cava in order to prevent blood coagulation. Then, the adrenal gland was isolated from the body, and transferred to a leucite chamber which was kept at 37±1° C.
The adrenal gland was perfused at a rate of 0.33 ml/min with the aid of a peristaltic pump (ISCO® pump, WIZ Co. U.S.A.). The perfusion solution was a Krebs-bicarbonate solution: (mM) NaCl, 118.4; KCl, 4.7; CaCl2, 2.5; MgCl2, 1.18; NaHCO3, 25; KH2PO4, 1.2; glucose, 11.7.
The perfusion solution was continuously aerated with 95% O2+5% CO2 gas, and was maintained to have pH 7.4-7.5. In addition, the perfusion solution was supplemented with EDTA ([…]) and ascorbic acid ([…]) to prevent the oxidation of catecholamines (Woo et al., Korean J Physiol Pharmacol., 12, 155-164, 2008).
Gintonin (1˜10 μg/ml) or cyclopiazonic acid (10 μM) was applied by perfusion for 4 min while acetylcholine (5.32 mM) was infused at a dose of 50 μl using a three-way stopcock.
Prior to treatment with a material stimulating catecholamine secretion, the adrenal gland was left until the secretion of catecholamine in the absence of stimuli reached a constant level, that is, a background or basal level, which typically took 5˜10 min. Then, the adrenal gland was perfused with gintonin or other drugs, and perfusates effluent from the adrenal gland were collected at regular intervals of 4 min, and the amount of catecholamines released by drug stimulation was calculated by subtracting the background or basal level from measurements (Woo et al., Korean J Physiol Pharmacol., 12, 155-164, 2008).
In order to examine the effect of gintonin on the spontaneous secretion of catecholamine and on the stimulus-induced secretion of catecholamine, the adrenal gland was perfused with a Krebs solution containing gintonin alone or in combination with other drugs, after which the perfusates were collected until the amount of secreted catecholamine reached the background level. The collected adrenal perfusates were stored in tubes maintained at 4° C.
Catecholamine in the perfusates was quantified using a fluorospectrophotometer (Kontron Co., Milano, Italy) according to the methods of Anton and Sayre, and Lim. In this regard, each perfusate amounted to 0.2 ml (Woo et al., Korean J Physiol Pharmacol., 12, 155-164, 2008).

B1: gintonin: ginseng-derived glycolipoprotein; structural protein of ginseng major latex-like protein (MLP151) and ribonuclease-like storage proteins; crude gintonin used in tests (protein)
chain 1: MGLTGKLICQTGIKSDGDVFHELFGTRPHHVPNITPANIQGCDLHEGEFGKVGSVVIWNYSIDGNAMIAKEEIVAIDEEDKSVTFKVVEGHLFEEFKSIVFSVHVDTKGEDNLVTWSIDYEKLNESVKDPTSYLDFLLSVTRDIEAHHLPK
chain 2: RSDYPWAMFALRLQWPAGFCEVNNACDTKSLLNTFTIHGLYPYNAKGTPALYCDGTAFDVNSVSDFLAEMHLAWPSHETNTEDIQFWEHEWKKHGRCSEALLKQTDYFRTALAFRKAFDIVGLLNQEGIYPNNDLYRPKMIKEAIKKHLNAVPEIDFTKNENSEYVLTDINVCVNQQATRFVDCPTDDATDDYRLKFVRLPSKMKFADPRTNSII
For B1, the “catecholamine secretion after acetylcholine” value (gintonin 1 μg/ml, pre-treatment with 5.32 mM acetylcholine) was “incapacitated the effect”, the “catecholamine secretion after acetylcholine” value (gintonin 3 μg/ml, 5.32 mM acetylcholine) was “continually promote the secretion of catechlamine” and the “catecholamine secretion after acetylcholine” value (gintonin 10 μg/ml, 5.32 mM acetylcholine) was “stimulates the secretion of catecholamine in the early stage, but could not induce the secretion since then”. The catecholamine secretion (gintonin 1~10 μg/ml, perfusion at 15-min intervals) was “continually secrete catecholamine in a dose-dependent manner”.
